How the values were obtained:
Test in all cases: cell-based or functional assay
[1] = target: LPA1 receptor (Homo sapiens, UniProt Q92633)
[2] = target: LPA1 receptor endogenous to Xenopus oocytes (Xenopus laevis)
[3] = target: LPA2 receptor (Homo sapiens, UniProt Q9HBW0)
[4] = target: T1, LPA3 receptor (wild-type) (human) (UniProt Q9UBY5)
T1 sequence (looked up): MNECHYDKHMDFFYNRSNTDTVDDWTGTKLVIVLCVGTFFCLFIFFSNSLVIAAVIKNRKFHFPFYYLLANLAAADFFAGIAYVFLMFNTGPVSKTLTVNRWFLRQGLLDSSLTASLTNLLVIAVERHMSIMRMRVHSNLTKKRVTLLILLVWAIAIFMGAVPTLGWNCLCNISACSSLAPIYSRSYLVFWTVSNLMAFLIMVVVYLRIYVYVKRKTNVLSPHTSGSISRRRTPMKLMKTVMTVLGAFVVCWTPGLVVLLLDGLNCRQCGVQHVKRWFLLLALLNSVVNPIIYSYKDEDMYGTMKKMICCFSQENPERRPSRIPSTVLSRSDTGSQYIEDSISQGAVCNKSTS

[5] = target: LPA4 receptor (Homo sapiens, UniProt Q99677)
Sequence of LPA4 receptor (Q99677 whole entry): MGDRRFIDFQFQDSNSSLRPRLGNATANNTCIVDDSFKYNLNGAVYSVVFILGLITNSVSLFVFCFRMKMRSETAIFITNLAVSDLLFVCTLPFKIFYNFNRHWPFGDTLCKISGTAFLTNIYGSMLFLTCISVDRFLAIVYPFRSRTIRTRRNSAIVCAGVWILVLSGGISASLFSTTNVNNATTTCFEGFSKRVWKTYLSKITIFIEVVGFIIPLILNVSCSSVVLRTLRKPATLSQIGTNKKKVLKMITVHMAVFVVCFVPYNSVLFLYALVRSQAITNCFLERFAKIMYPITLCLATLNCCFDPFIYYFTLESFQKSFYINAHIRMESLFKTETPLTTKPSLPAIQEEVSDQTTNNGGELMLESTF

[6] = target: LPA5 receptor (Homo sapiens, UniProt Q9H1C0)
Sequence of LPA5 receptor (Q9H1C0 whole entry): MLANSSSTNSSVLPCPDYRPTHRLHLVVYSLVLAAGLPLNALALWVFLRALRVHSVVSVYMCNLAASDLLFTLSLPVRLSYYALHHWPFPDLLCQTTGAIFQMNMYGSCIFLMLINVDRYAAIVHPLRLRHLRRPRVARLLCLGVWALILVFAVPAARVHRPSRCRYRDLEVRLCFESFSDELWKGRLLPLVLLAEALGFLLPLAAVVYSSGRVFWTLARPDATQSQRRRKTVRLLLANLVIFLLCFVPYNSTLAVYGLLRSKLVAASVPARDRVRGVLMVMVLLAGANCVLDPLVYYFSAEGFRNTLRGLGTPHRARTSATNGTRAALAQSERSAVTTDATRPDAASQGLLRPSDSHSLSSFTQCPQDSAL

Sequence of LPA2 receptor (Q9HBW0 whole entry): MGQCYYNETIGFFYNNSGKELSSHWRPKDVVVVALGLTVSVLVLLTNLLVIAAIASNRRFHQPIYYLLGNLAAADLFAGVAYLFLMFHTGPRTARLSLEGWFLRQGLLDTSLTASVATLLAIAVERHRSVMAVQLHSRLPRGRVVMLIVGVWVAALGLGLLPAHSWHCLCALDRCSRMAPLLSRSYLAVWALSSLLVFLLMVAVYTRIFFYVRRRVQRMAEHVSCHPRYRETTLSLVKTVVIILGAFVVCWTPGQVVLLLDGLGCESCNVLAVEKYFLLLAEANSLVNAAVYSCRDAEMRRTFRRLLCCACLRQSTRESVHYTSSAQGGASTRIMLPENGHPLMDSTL
Sequence of LPA1 receptor (Q92633 whole entry): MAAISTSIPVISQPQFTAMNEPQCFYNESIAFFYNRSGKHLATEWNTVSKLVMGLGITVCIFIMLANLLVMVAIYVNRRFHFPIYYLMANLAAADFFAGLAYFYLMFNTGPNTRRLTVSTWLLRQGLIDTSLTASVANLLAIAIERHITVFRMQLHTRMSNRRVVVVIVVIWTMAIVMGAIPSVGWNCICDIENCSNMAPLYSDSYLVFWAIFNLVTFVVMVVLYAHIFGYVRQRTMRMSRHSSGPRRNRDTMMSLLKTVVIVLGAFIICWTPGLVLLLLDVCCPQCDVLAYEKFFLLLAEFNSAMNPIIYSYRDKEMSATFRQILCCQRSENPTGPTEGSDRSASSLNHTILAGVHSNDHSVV

- EC50 of LPA receptor-mediated intracellular calcium increase in B103 cells [1]: 0.1 nM
- increase of intracellular calcium level in receptor-expressing B103 cells, gintonin 1 µg/ml (Fura-2AM) [1]: 186 nM
- ED50 of gintonin-induced NMDA receptor-mediated inward currents in NMDA receptor-expressing Xenopus oocytes [2]: 0.49 µg/mL
- ED50 of gintonin-induced activation of BKCa K+ channels expressed in Xenopus oocytes [2]: 0.71 µg/mL
- EC50 of LPA receptor-mediated intracellular calcium increase in B103 cells [3]: 4 pM
- increase of intracellular calcium level in receptor-expressing B103 cells, gintonin 1 µg/ml (Fura-2AM) [3]: 208 nM
- EC50 of LPA receptor-mediated intracellular calcium increase in B103 cells [4]: 0.12 nM
- increase of intracellular calcium level in receptor-expressing B103 cells, gintonin 1 µg/ml (Fura-2AM) [4]: 206 nM
- increase of intracellular calcium level in receptor-expressing B103 cells upon treatment with gintonin (Fura-2AM) [5]: 61.6 nM
- EC50 of LPA receptor-mediated intracellular calcium increase in B103 cells [6]: 0.046 nM
- increase of intracellular calcium level in receptor-expressing B103 cells, gintonin 1 µg/ml (Fura-2AM) [6]: 298 nM
B1: glycolipoprotein gintonin isolated from ginseng (ligand)
chain 1: MGLTGKLICQTGIKSDGDVFHELFGTRPHHVPNITPANIQGCDLHEGEFGKVGSVVIWNYSIDGNAMIAKEEIVAIDEEDKSVTFKVVEGHLFEEFKSIVFSVHVDTKGEDNLVTWSIDYEKLNESVKDPTSYLDFLLSVTRDIEAHHLPK
chain 2: RSDYPWAMFALRLQWPAGFCEVNNACDTKSLLNTFTIHGLYPYNAKGTPALYCDGTAFDVNSVSDFLAEMHLAWPSHETNTEDIQFWEHEWKKHGRCSEALLKQTDYFRTALAFRKAFDIVGLLNQEGIYPNNDLYRPKMIKEAIKKHLNAVPEIDFTKNENSEYVLTDINVCVNQQATRFVDCPTDDATDDYRLKFVRLPSKMKFADPRTNSII
modifications: three N-glycosylation sites (positions not numbered in the text); bound sugars and lipids

Source: patent publication US20140234868A1, “USE FOR GLYCOLIPOPROTEIN GINTONIN, ISOLATED AND IDENTIFIED FROM GINSENG, AS A NATURAL MEDICAL-PLANT DERIVED LIGAND” (KONKUK UNIVERSITY INDUSTRIAL COOPERATION CORP., priority 2011, published 2014)
